Earlier results, collected in US9205345B2, “Spray-drying apparatus and methods of using the same” (Bend Research, Inc., priority 2010, dated 2015).

Assays:
[1] = not given; remark: listed apart in the source
[2] = not given; remark: listed apart in the source

Molecule	pKa	Log P [1]	solubility in water [2]
insulin [Active Agent 2]	5.39	0.22	–
CC(C)(C)NCC(O)c1ccc(O)c(CO)c1 (centres unmarked) [Active Agent 1, 4-[2-(tert-butylamino)-1-hydroxyethyl]-2-(hydroxymethyl)phenol, reference compound]	–	0.11	freely soluble in water
Peptide YY (PYY) [Active Agent 3]	–	–	soluble in water
